Results on ten molecules are retold here after US12552834 (MIT, dated 2026).

First the molecules themselves.
B1: SYNPO2 36-mer peptide (peptide)
peptide: MAGGLNDIFEAQKIEWHEDTGGSSHHHHHHGSGSGSDSEVNQEAKPEVKPEVKPETHINLKVSDGSSEIFFKIKKTTPLRRLMEAFAKRQGKEMDSLTFLYDGIEIQADQTPEDLDMEDNDIIEAHREQIGGSGSGKSPIADFPAPPPYSAVTPPPDAFSRGVSSPIAGPAQ
modifications: biotinylated (BAP tag)
notes: Tested as a biotinylated BAP-6xHis-SUMO-peptide fusion
B2: SHROOM3 36-mer peptide (peptide)
peptide: MAGGLNDIFEAQKIEWHEDTGGSSHHHHHHGSGSGSDSEVNQEAKPEVKPEVKPETHINLKVSDGSSEIFFKIKKTTPLRRLMEAFAKRQGKEMDSLTFLYDGIEIQADQTPEDLDMEDNDIIEAHREQIGGSGSGVYSMDDFPPPPPHTVCEAQLDSEDPEGPRPSFNKLS
modifications: biotinylated (BAP tag)
notes: as for B1
B3: FBLIM1 36-mer peptide (peptide)
peptide: MAGGLNDIFEAQKIEWHEDTGGSSHHHHHHGSGSGSDSEVNQEAKPEVKPEVKPETHINLKVSDGSSEIFFKIKKTTPLRRLMEAFAKRQGKEMDSLTFLYDGIEIQADQTPEDLDMEDNDIIEAHREQIGGSGSGPPVLDGEDVLPDLDLLPPPPPPPPVLLPSEEEAPAP
modifications: biotinylated (BAP tag)
notes: as for B1
B4: ABI3 36-mer peptide (peptide)
peptide: MAGGLNDIFEAQKIEWHEDTGGSSHHHHHHGSGSGSDSEVNQEAKPEVKPEVKPETHINLKVSDGSSEIFFKIKKTTPLRRLMEAFAKRQGKEMDSLTFLYDGIEIQADQTPEDLDMEDNDIIEAHREQIGGSGSGSPPPPDEELPLPLDLPPPPPLDGDELGLPPPPPGFG
modifications: biotinylated (BAP tag)
notes: as for B1
B5: FYB1 36-mer peptide (peptide)
peptide: MAGGLNDIFEAQKIEWHEDTGGSSHHHHHHGSGSGSDSEVNQEAKPEVKPEVKPETHINLKVSDGSSEIFFKIKKTTPLRRLMEAFAKRQGKEMDSLTFLYDGIEIQADQTPEDLDMEDNDIIEAHREQIGGSGSGSGSGGIFPPPPDDDIYDGIEEEDADDGFPAPPKQLD
modifications: biotinylated (BAP tag)
notes: as for B1
B6: NUTM2E 36-mer peptide (peptide)
peptide: MAGGLNDIFEAQKIEWHEDTGGSSHHHHHHGSGSGSDSEVNQEAKPEVKPEVKPETHINLKVSDGSSEIFFKIKKTTPLRRLMEAFAKRQGKEMDSLTFLYDGIEIQADQTPEDLDMEDNDIIEAHREQIGGSGSGVVPVMAAQVVGGTQACEGGWSQGLPLPPPPPPAAQL
modifications: biotinylated (BAP tag)
notes: as for B1
B7: TJAP1 36-mer peptide (peptide)
peptide: MAGGLNDIFEAQKIEWHEDTGGSSHHHHHHGSGSGSDSEVNQEAKPEVKPEVKPETHINLKVSDGSSEIFFKIKKTTPLRRLMEAFAKRQGKEMDSLTFLYDGIEIQADQTPEDLDMEDNDIIEAHREQIGGSGSGPEEELPLPAFEKLNPYPTPSPPHPLYPGRRVIEFSE
modifications: biotinylated (BAP tag)
notes: as for B1
B8: KIAA1522 36-mer peptide (peptide)
peptide: MAGGLNDIFEAQKIEWHEDTGGSSHHHHHHGSGSGSDSEVNQEAKPEVKPEVKPETHINLKVSDGSSEIFFKIKKTTPLRRLMEAFAKRQGKEMDSLTFLYDGIEIQADQTPEDLDMEDNDIIEAHREQIGGSGSGPPAPEEQDLSMADFPPPEEAFFSVASPEPAGPSGSP
modifications: biotinylated (BAP tag)
notes: Tested as a biotinylated BAP-6xHis-SUMO-peptide fusion; also called KIAAA1522
B9: FHOD1 peptide (peptide)
peptide: MAGGLNDIFEAQKIEWHEDTGGSSHHHHHHGSGSGSDSEVNQEAKPEVKPEVKPETHINLKVSDGSSEIFFKIKKTTPLRRLMEAFAKRQGKEMDSLTFLYDGIEIQADQTPEDLDMEDNDIIEAHREQIGGSGSGSVPPPPPLPPPPPIKGPFPPPPPLPLAAPLPHSVPD
modifications: biotinylated (BAP tag)
notes: as for B1
B10: TNK2 36-mer peptide (peptide)
peptide: MAGGLNDIFEAQKIEWHEDTGGSSHHHHHHGSGSGSDSEVNQEAKPEVKPEVKPETHINLKVSDGSSEIFFKIKKTTPLRRLMEAFAKRQGKEMDSLTFLYDGIEIQADQTPEDLDMEDNDIIEAHREQIGGSGSGTPVVDWDARPLPPPPAYDDVAQDEDDFEICSINSTL
modifications: biotinylated (BAP tag)
notes: as for B1

T1 sequence (Q03173 other isoform, or with tags, fused parts or gaps limits assumed): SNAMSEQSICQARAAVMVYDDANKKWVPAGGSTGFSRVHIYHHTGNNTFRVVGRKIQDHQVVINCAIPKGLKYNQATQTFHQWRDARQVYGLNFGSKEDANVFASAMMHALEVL

The experiment concerns the target T1, ENAH EVH1 domain (monomeric, wild type) (human, UniProt Q03173 1-111 (mouse entry)).
T1 construct: ENAH residue numbers in the text count from the Met at position 25 of this entry; also called ENAH EVH1 WT; Mena EVH1 WT
Briefly: BLI, steady state; SUMO-peptide immobilised, EVH1 monomer in solution. In general terms: BLI is a label-free optical method that tracks binding on a fibre tip over time.
Description: All BLI experiments were performed with 2 replicates on an Octet Red96 instrument (ForteBio). […] The loaded tips were immersed in a solution of ENAH EVH1 domain at a relevant dilution series in BLI buffer at an orbital shake speed of 1000 rpm and run until the binding signal plateaued. ENAH-bound tips were subsequently placed into BLI buffer only for dissociation and run until the binding signal plateaued. K_D values were obtained through steady state analysis. […] The association phases were then fit to a one-phase binding model in Prism and the equilibrium steady-state binding signal values from that fit were plotted against ENAH concentration and fit to a single-site specific binding model in Prism to obtain dissociation constants. Errors reported are the standard deviation of two replicates.
The molecule B1 had a Kd of 52.1 µM. The value for B2 was 9.3 µM; that for B3 was 16 µM. The value for B4 was 13.6 µM.

As to B5, binding was characterised by a dissociation constant (Kd) of 24.3 µM. Regarding B6, the Kd was 33.9 µM. Turning to B7, the Kd was 23.9 µM. The value for B8 was 14 µM; that for B9 was 50.4 µM; that for B10 was 21.2 µM.

Usually Kd stands for a measure of binding affinity in units of concentration. Read a low Kd as tighter binding.
